In IntAct's records for PubMed 22085930:

B1: Ubiquitin-conjugating enzyme E2-21 kDa (Saccharomyces cerevisiae), P29340 (parent)
chain: MPNFWILENRRSYTSDTCMSRIVKEYKVILKTLASDDPIANPYRGIIESLNPIDETDLSKWEAIISGPSDTPYENHQFRILIEVPSSYPMNPPKISFMQNNILHCNVKSATGEICLNILKPEEWTPVWDLLHCVHAVWRLLREPVCDSPLDVDIGNIIRCGDMSAYQGIVKYFLAERERINNH
partner: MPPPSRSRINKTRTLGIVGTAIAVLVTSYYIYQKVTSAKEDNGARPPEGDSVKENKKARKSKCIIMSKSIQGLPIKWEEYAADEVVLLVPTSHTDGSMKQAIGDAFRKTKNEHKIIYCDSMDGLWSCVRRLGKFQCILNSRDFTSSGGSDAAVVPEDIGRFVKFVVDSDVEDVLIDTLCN
B2: Peroxisome assembly protein 22 (Saccharomyces cerevisiae), P39718 (parent)
chain: B1 partner
partner: B1 chain

Variants of: B1
Conditions: with pex22_yeast PEX22, P39718

Row | effect of a mutation on the interaction | Variant
1 | decreasing interaction | MPNFWILENRRSYTSDTCMSRIVKEYKVILKTLASDDPIANPYRGIIESLNPIDETDLSKWEAIISGPSDTPYENHQFRILIEVPSSYPMNPPKISFMQNNILHCNVKSATGEICLNILKPEEWTPVWDLLHCVHAVWRLLREPVCDSPLDVDIGNIIRCGDMSAYQGIVKFFLAERERINNH [Y172F]

Variants of: B1
Conditions: with pex22_yeast PEX22, P39718
Remark: another data set of the same source

Row | effect of a mutation on the interaction | Variant
2 | disrupting interaction | MPNFWILENRRSYTSDTCMSRIVKEYKVILKTLASDDPIANPYRGIIESLNPIDETDLSKWEAIISGPSDTPYENHQFRILIEVPSSYPMNPPKISFMQNNILHCNVKSATGEICLNILKPEEWTPVWDLLHCVHAVWRLLREPVCDSPLDVDIGNIIRCGDMSAYQGIVKAFLAERERINNH [Y172A]

Variants of: B2
Conditions: with ubcx_yeast PEX4, P29340

Row | effect of a mutation on the interaction | Variant
3 | decreasing interaction | MPPPSRSRINKTRTLGIVGTAIAVLVTSYYIYQKVTSAKEDNGARPPEGDSVKENKKARKSKCIIMSKSIQGLPIKWEEYAADEVVLLVPTSHTDGSMKQAIGDAFRKTKNEHKIIYCDSMDGLWSCVRRLGAFQCILNSRDFTSSGGSDAAVVPEDIGRFVKFVVDSDVEDVLIDTLCN [K133A]
